Assay [1] deals with T1, CC chemokine receptor 4 (CCR4) (human, UniProt P51679 1-360).
T1 construct: whole, on cells; No recombinant CCR4 was used; also called CD194
T1 sequence (looked up): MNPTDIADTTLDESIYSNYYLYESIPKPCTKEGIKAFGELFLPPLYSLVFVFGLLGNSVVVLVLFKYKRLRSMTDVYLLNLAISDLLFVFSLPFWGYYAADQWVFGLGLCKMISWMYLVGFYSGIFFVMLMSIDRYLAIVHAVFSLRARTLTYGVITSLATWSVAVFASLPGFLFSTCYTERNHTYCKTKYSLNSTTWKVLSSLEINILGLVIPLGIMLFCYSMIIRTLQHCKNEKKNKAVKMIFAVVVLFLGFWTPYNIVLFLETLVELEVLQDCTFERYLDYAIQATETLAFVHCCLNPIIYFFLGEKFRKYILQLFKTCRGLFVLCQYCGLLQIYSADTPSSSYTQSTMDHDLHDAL
As to the kind of experiment: flow cytometry on HH cells, KW-0761 conjugated to Ax680. As for the experimental part: CCR4 was analyzed by FCM.
Dead cells were gated out by staining with violet amine-reactive viability dye, LIVE-DEAD violet (Invitrogen). Intracellular staining was performed using the Foxp3/Transcription Factor Staining Kit (Affymetrix) per the manufacturer's instructions. CCR4-CAR and CD19-CAR expression were detected by biotinylated antihuman Fab antibody and anti-mouse Fab antibody (Jackson ImmunoResearch), respectively. […] Data were collected either by a Fortessa LSRII or LSR II cytometer (BD Biosciences) and analyzed using FlowJo version 10 software (Tree Star).

For assay [2], the target named is T1, CC chemokine receptor 4 (CCR4). As to the kind of experiment: flow cytometry on HH cells transduced with the CAR; reduced staining by the parent mAb. On the technique in general: Flow cytometry measures light scatter and fluorescence of single cells or particles in a stream.
For assay [3] the target is unchanged. Description: flow cytometry on HH cells transduced with the CAR; loss of staining by the parent mAb.

B1: anti-CCR4 monoclonal antibody clone KW-0761 (mogamulizumab) (antibody, V domains shown)
VH: EVQLVESGGDLVQPGRSLRLSCAASGFIFSNYGMSWVRQAPGKGLEWVATISSASTYSYYPDSVKGRFTISRDNAKNSLYLQMNSLRVEDTALYYCGRHSDGNFAFGYWGQGTLVTVSS
VL: DVLMTQSPLSLPVTPGEPASISCRSSRNIVHINGDTYLEWYLQKPGQSPQLLIYKVSNRFSGVPDRFSGSGSGTDFTLKISRVEAEDVGVYYCFQGSLLPWTFGQGTKVEIK
notes: also called anti-CCR4 clone KW monoclonal antibody
On to B1, for which, in assay [1], the binding result is given as “binds”.

B2: CCR4(KW_L2H)-CAR (other)
chain: GSDVLMTQSPLSLPVTPGEPASISCRSSRNIVHINGDTYLEWYLQKPGQSPQLLIYKVSNRFSGVPDRFSGSGSGTDFTLKISRVEAEDVGVYYCFQGSLLPWTFGQGTKVEIKGGGGSGGGGSGGGGSGGGGSEVQLVESGGDLVQPGRSLRLSCAASGFIFSNYGMSWVRQAPGKGLEWVATISSASTYSYYPDSVKGRFTISRDNAKNSLYLQMNSLRVEDTALYYCGRHSDGNFAFGYWGQGTLVTVSSSGTTTPAPRPPTPAPTIASQPLSLRPEACRPAAGGAVHTRGLDFACDIYIWAPLAGTCGVLLLSLVITLYCKRGRKKLLYIFKQPFMRPVQTTQEEDGCSCRFPEEEEGGCELRVKFSRSADAPAYKQGQNQLYNELNLGRREEYDVLDKRRGRDPEMGGKPRRKNPQEGLYNELQKDKMAEAYSEIGMKGERRRGKGHDGLYQGLSTATKDTYDALHMQALPPR
notes: Chimeric antigen receptor on the surface of transduced HH cells or primary T cells
Consider B2, for which the binding result in assay [2] is “binds”.

B3: CCR4(h1567_L2H)-CAR (other)
chain: DIVMTQSPDSLAVSLGERATINCKSSQSILYSSNQKNYLAWYQQKPGQSPKLLIYWASTRESGVPDRFSGSGSGTDFTLTISSLQAEDVAVYYCHQYLSSYTFGQGTKLEIKGGGGSGGGGSGGGGSGGGGSQVQLVQSGAEVKKPGASVKVSCKASGYTFASYYMHWMRQAPGQGLEWIGWINPGNVNTKYNEKFKGRATLTVDTSTNTAYMELSSLRSEDTAVYYCARSTYYRPLDYWGQGTLVTVSS
notes: Chimeric antigen receptor on the surface of transduced HH cells or primary T cells; also called CCR4-CAR(h1567_L2H); not shown: second-generation CAR backbone (CD8 hinge and transmembrane, 4-1BB, CD3 zeta); the fu
B3: the binding result in assay [3] was “binds”.
